Patent publication CN111018979A (DONGGUAN PENGZHI BIOTECHNOLOGY CO LTD, dated 2020)

Target: T1, cTnI质控品重组蛋白 (recombinant cardiac troponin I quality-control antigen, made in-house) (human, UniProt P19429 1-210, limits assumed)
T1 construct: The assay paragraph says only 'cTnI质控品重组蛋白(公司自产重组抗原)', so the limits of the construct are unknown; also called 心肌肌钙蛋白I; cTnI质控品重组抗原
Assay: BLI, antibody held on AMC sensor, cTnI recombinant protein in solution in a dilution series

T1 sequence (P19429 whole entry): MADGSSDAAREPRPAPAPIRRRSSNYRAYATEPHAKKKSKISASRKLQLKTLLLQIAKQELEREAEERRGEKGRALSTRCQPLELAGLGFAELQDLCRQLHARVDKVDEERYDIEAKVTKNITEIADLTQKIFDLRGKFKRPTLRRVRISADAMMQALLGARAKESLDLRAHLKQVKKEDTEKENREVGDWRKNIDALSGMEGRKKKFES

Kd: 64.8 nM
koff: 0.0027 s⁻¹
kon: 41700 M⁻¹ s⁻¹
B1: Anti-cTnI 2E7 recombinant antibody (sample 1 of Example 1) (antibody, V domains shown)
VH: QVQLQQPGAELVRPGASVKLSCKASDYTFSSYWMQWVKQRPGQGLEWIGMLDPSDSETHYNQLFKDKATLTVDKSSNTAYMQLSSLTSEDSAVYFCAFLTSLGDYWGQGTTLTVSS
VL: DVLMTQTPLSLPVSLGDQASISCRSSQSIIHSQGNSYLEWYLQKPGQSPKLLLYKVSQRLSGVPDRFSGSGSGTDFTLKISRVEAEDLGVYYCFNGSHLPITFGAGTKLELK
